The text below walks through data of patent US20240131155A1, “T CELLS FOR USE IN THERAPY” (Erasmus University Medical Center Rotterdam, priority 2021, published 2024).

Peptide text beside a SMILES is read from it.

The target in assay [1] is T1, HLA-A2 (Homo sapiens, UniProt P04439, D140Y/D185E/D98H/E176V/E277Q/G131W/G231S/I119V/I121R/I166T/I218V/L300P/L318F/N151K/N90K/P208A/P217A/Q86G/Q94H/R138H/R169H/T345S).
T1 construct: The HLA-A2 stabilization assay was performed using T2 cells; endogenous in cells; host or cells: T2 cells (LCLxT lymphoblastoid hybrid cell line 0.1743CEM.T2)
The experiment in a line: HLA-A2 stabilization assay using T2 cells. The format is binding. The settings on record: Table 4 (Examples 1 and 2); EC50 of peptide titration on T2 cells; read-out: Affinity for HLA.A2.01.

Assay [2] deals with CD8+ T cells. The assay is described as follows: Enrichment of epitope-specific CD8 T cells from healthy donors, epitope-specific IFNg production (ELISA). The format is cell-based, human. Particulars: Table 4; positive co-cultures / co-cultures tested. The procedure: (§1) Enrichment of epitope-specific CD8 T cells was performed according to the protocol described by Butler et al., Clin Cancer Res.;13(6):1857-1867 (2007), doi:10.1158/1078-0432, but included the following amendments. CD8+ T lymphocytes were collected from PBMCs by magnetic-activated cell sorting (MACS) according to the CD8 isolation kit (Miltenyi Biotec). CD8+ T cells with >95% purity were subsequently cultured in T cell medium supplemented with IL-2 (36 IU/mL; but no gentamycin) for 1 day, after which expansion cycles started. K562ABC cells (kindly provided by prof. Bruce Levine, University of Pennsylvania, PA) were loaded with 10 μg/ml ROPN1 and/or ROPN1B peptide and incubated for 5 h at RT in serum-free medium, after which cells were washed and fixed with 0,1% paraformaldehyde. After washing, K562ABC cells were suspended at 0.1×10^6/mL and co-cultured with T cells in a 1:20 ratio. IL-2 (36 IU/mL) and IL-15 ([…]) were added at days 1 and 3 days after start of co-culture, and after 6 days, T cells were counted, suspended at 2×10^6/mL and rested for 1 day, after which the next cycle commenced (this schedule continued up to 4 or 5 cycles). Following 4 and 5 cycles, T cells were stained with pMHC multimers (HLA*0201/MLN, Immudex, Copenhagen, Denmark). pMHC-PE were pre-incubated at RT for 10 min followed by incubation with 7AAD, anti-CD3-FITC and anti-CD8-APC for 20 min. Cells were fixed with 1% paraformaldehyde and TCR expression was measured with flow cytometry and analyzed using FlowJoX software. FIG. 4A schematically depicts the procedure to enrich epitope-specific T cells, and obtainthe corresponding TCR genes.
Enriched T cells were tested for ROPN1 and/or ROPN1B epitope-specific IFNY production. To this end, T2 cells (4×10^6/mL) were loaded with peptide (20 ng/mL) for 30 min. T cells (2×10^5) were cultured in a 1:1 ratio with T2 cells in a round bottom 96-wells plate, and the next day supernatant was collected and IFN-γ production was measured with an Enzyme-linked immunosorbent assay (ELISA, Invitrogen) according to manufacturer's protocol (FIG. 4B). T2 cells without peptide were included as a negative control; and staphylococcal enterotoxin B (0.1 μg, Sigma) was used as a positive control.
Enrichment of epitope-specific T cells was performed by co-culturing naïve T cells with CD11c-positive cells that were loaded with peptide. PBMCs were passed through a cell strainer (70 μm) and used for the isolation of naïve T cells and CD11c cells. To isolate CD11c-positive cells (typically dendritic cells, DC), PBMCs were stained for 10 mM at 4° C. with Fc block (10 μL/10^7 PBMCs, BD Pharmingen, Vianen, the Netherlands), after which cells were stained with CD11c-PE antibody (10 μL/10^7 PBMCs, BD Pharmingen) for 30 mM at 4° C., washed, and incubated with PE beads (10 μL/10^7 PBMCs, Miltenyi Biotech, Bergisch Gladbach, Germany) for another […] at 4° C. After washing, cells were dissolved in magnetic-activated cell sorting (MACS) buffer and passed through a MACS LS column (Miltenyi Biotec) to positively select CD11c cells. After selection, CD11c cells were irradiated with 30 Gy, and cultured overnight in a 24-wells plate (1×10^6/mL) in RPMI medium supplemented with 1% human serum (Sanquin), 1% antibiotics, […] L-glutamine, a DC maturation cocktail (a mixture of GM-CSF (10 ng/mL, ImmunoTools, Germany), IL-4 (10 ng/mL, ImmunoTools), LPS (100 ng/mL, Invitrogen, Goteborg, Sweden) and IFNY (10 ng/mL, Preprotech, London, United Kingdom)), as well as peptide (10 pg/mL). Naïve T cells were isolated with use of the Naïve T Cell isolation kit (Miltenyi Biotec) according to the manufacturer's protocol, and suspended in RPMI medium supplemented with 5% human serum (Sanquin), 1% antibiotics, […] L-glutamine and IL-7 (5 ng/mL, BD Pharmingen). The run-through of the naïve T cell selection was frozen down and used for re-stimulation of epitope-specific T cells. […]
(In general: An ELISA detects its analyte on a solid surface through an enzyme-linked reagent.)

Assay [3] has as its system CD8+ T cells. The assay is described as follows: peptide:MHC multimer/tetramer staining of enriched T cells (flow cytometry). Particulars: Table 4; enriched T cells after enrichment cycles. The assay is classed as cell-based, human. The procedure: as §1
Following enrichment, T cells were tested for ROPN1 and/or ROPN1B epitope-specific IFNY production. To this end, T2 cells (1×10^6/mL) were loaded with peptide (20 ng/mL) for 30 min, after which T cells (1×10^5) were cultured in a 1:1 ratio with T2 cells in a round bottom 96-wells plate for 18 h. Supernatant was collected and IFN-γ production was measured with an Enzyme-linked immunosorbent assay (ELISA, BioLegend) according to the manufacturer's protocol (FIG. 9A). T2 cells loaded with an irrelevant peptide were included as a negative control. T cell IFNg production was considered epitope-specific in case levels exceeded 200 pg/ml, and levels were minimally twice as high as for irrelevant peptide (see for full listing of criteria, FIG. 8). T cells that fulfilled these criteria were stained with peptide:MHC (pMHC) tetramers to determine the frequency of epitope-specific T cells. Empty Loadable HLA Tetramers (5 μL, Tetramer shop, Kongens Lyngby, Denmark) were incubated with 0.5 μL peptide (200 μM) for 30 min on ice. Complexes of pMHC were centrifuged (3300 g, 5 min) and incubated with 0.1×10^6 T cells for 15 min at 37° C. in the dark. Next, an antibody cocktail containing CD3-FITC (1:30, BD) and CD8-APC (1:300, eBiosciences) was added and incubated for an additional 30 min at 4° C. in the dark. Finally, T cells were washed twice and fixed with 1% paraformaldehyde (PFA), after which events were acquired with FACSCelesta (BD) and analyzed using FlowJoX software.
(A flow cytometer gives signals particle by particle.)

Assay [4] concerns ROPN1 or ROPN1B over-expressing MDA-MB231 tumor cells. The experiment in a line: IFNg production of TCR T cells co-cultured with ROPN1 or ROPN1B over-expressing tumor cells (endogenously processed epitope). The format is cell-based, human. The settings on record: Table 4; responding TCRs / TCRs tested, T cells transduced with TCR specific for the epitope. The procedure: In a first series of in vitro tests, TCR-transduced T cells (6×10^4/well in a 96-well plate) were co-cultured with ROPN1 or ROPN1B over-expressing MDA-MB231 tumor cells (2×10^4/well) in a total volume of 200 μl of T cell medium for 24 h at 37° C. The ROPN1 or ROPN1B over-expressing tumor cells were generated as described under ‘generation and culture of cell lines and T cells’ (see above), and tumor cells were pre-treated 48 h with IFN-Y before co-culture with T cells. […] T cells that fulfilled these criteria (examples in FIG. 10A) were assessed for their sensitivity towards their cognate epitope. […] EC50 values were calculated using GraphPad Prism 5 software.

Assay [5] concerns the target T2, HLA-A2 (HLA-A2:01) on T2 cells (human).
T2 construct: detected with anti-HLA-A2 mAb BB7.2
The experiment in a line: HLA-A2 stabilization assay on T2 cells, peptide titration; EC50 calculated with GraphPad [panel D].

Assay [6] has as its target T2, HLA-A2 (HLA-A2:01) on T2 cells. The assay is described as follows: HLA-A2 stabilization assay on T2 cells (anti-HLA-A2-PE, flow cytometry), single peptide concentration [panel D].
Assay [7] shares this target. The experiment in a line: HLA-A2 stabilization assay on T2 cells, peptide titration; amplitude relative to that of reference peptide YLE [panel D].
For assay [8] the target is unchanged. The experiment in a line: HLA-A2 stabilization assay on T2 cells, peptide titration (Example 2, repeated); column Affinity for HLA.A2.01 (M).
For assay [9] the target is unchanged. The experiment in a line: HLA-A2 stabilization assay on T2 cells, peptide titration, flow cytometry with anti-HLA-A2 BB7.2; column Affinity for HLA A2:01 (M).
Assay [10] has the same target. The assay is described as follows: HLA-A2 stabilization assay on T2 cells (anti-HLA-A2-PE, flow cytometry), single peptide concentration 25 ug/mL [panel E].
For assay [11] the target is unchanged. The experiment in a line: HLA-A2 stabilization assay on T2 cells, peptide titration; amplitude = highest data point corrected for baseline [panel E].

Turning to `CC[C@H](C)[C@H](NC(=O)[C@H](CC(C)C)NC(=O)CNC(=O)[C@H](CC(=O)O)NC(=O)[C@@H]1CCCN1C(=O)CNC(=O)[C@@H](NC(=O)[C@@H](NC(=O)[C@@H](N)CCC(=O)O)C(C)C)[C@@H](C)CC)C(=O)N[C@H](C(=O)N[C@H](C(=O)O)C(C)C)[C@@H](C)O` (H-EVIGPDGLITV-OH; N-terminus and C-terminus assumed), in assay [1], the EC50 was 0.655 µM. Further, the “T cell responses observed (IFNg) against epitope” value in assay [2] is 2/2 co-cultures. Moreover, in [3], the “pMHC staining % pMHC+ CD8+ in CD3+” value stood at 8.25%. Besides, the “T cell responses observed (IFNg) against endogenously presented epitope” value in [4] is reported as 1/7 responses.

LPRIPFSTF (ROPN1B, eluted): in [5], the EC50 was 0.0664 µM. In addition, the Minimum stability in [6] stood at 1.14 fold change over baseline. For the same molecule, the Amplitude in [7] was 0.38 relative to YLE.

As for FLYTYIAKV (Synthetic peptide) [Epitope 4 (FLY-A) peptide FLYTYIAKV of ROPN1], the EC50 in assay [8] was found to be 8.11 µM; in [9] it was 10.9 µM. Moreover, the Minimum stability in [6] was determined as 1.63 fold change over baseline; in assay [10] it was 1.5 fold change over baseline. The Amplitude was 0.888 relative to YLE in assay [7] and 2710 geometric mean normalized to baseline in assay [11].

B1: Epitope 1 (MLN) peptide MLNYIEQEV of ROPN1B (peptide)
peptide: MLNYIEQEV
notes: Synthetic peptide (ThinkPeptides/ProImmune)
Consider B1, for which the results for the EC50 in [8] and in [9] were 4.82 µM and 6.56 µM, respectively. Also, the Minimum stability was 1.4 fold change over baseline in [6] and 1.13 fold change over baseline in assay [10]. The Amplitude in [7] was 0.935 relative to YLE; in assay [11], 3450 geometric mean normalized to baseline.

Consider KMLKEFAKA (Synthetic peptide) [Epitope 9 peptide KMLKEFAKA of ROPN1 and ROPN1B], for which the EC50 in assay [8] was determined as 38.2 µM; in assay [9] it was 91.2 µM. Moreover, the Minimum stability in [6] worked out at 1.2 fold change over baseline; in assay [10] it was 1.19 fold change over baseline. For the same molecule, the Amplitude is 0.842 relative to YLE in assay [7] and 2660 geometric mean normalized to baseline in assay [11].

In the case of KTLKIVCEV (Synthetic peptide) [Epitope 3 peptide KTLKIVCEV of ROPN1 and ROPN1B], the figures for the EC50 in [8] and in assay [9] were 4.4 µM and 4.35 µM, respectively. Moreover, the Minimum stability in assay [6] is 1.26 fold change over baseline; in assay [10] it was 1.18 fold change over baseline. The Amplitude in [7] is 0.844 relative to YLE; in assay [11] it was 2620 geometric mean normalized to baseline.

As for FLALACSAL (Synthetic peptide) [Epitope 2 peptide FLALACSAL of ROPN1 and ROPN1B], the EC50 in [8] worked out at 4.5 µM; in [9] it was 5.05 µM. Further, the values for the Minimum stability in assay [6] and in [10] were 1.41 fold change over baseline and 1.62 fold change over baseline, respectively. The Amplitude in assay [7] was 0.95 relative to YLE; in [11] it was 3800 geometric mean normalized to baseline.

As to FQFLYTYIA (Synthetic peptide) [Epitope 6 peptide FQFLYTYIA of ROPN1 and ROPN1B], the EC50 in [8] came out at 3.43 µM; in assay [9], 3.28 µM. Besides, the Minimum stability in assay [6] worked out at 1.14 fold change over baseline; in assay [10], 1.32 fold change over baseline. The Amplitude in [7] is 0.739 relative to YLE; in [11] it was 2380 geometric mean normalized to baseline.

B2: Epitope 5 peptide LIIRAEELAQM of ROPN1 and ROPN1B (peptide)
peptide: LIIRAEELAQM
notes: 11-mer found by immunopeptidomics; tested as synthetic peptide
In the case of B2, the EC50 in [8] and in assay [9] was 6.99 µM throughout. Besides, the Minimum stability in [6] is 1.38 fold change over baseline; in assay [10], 1.27 fold change over baseline. For the same molecule, the figures for the Amplitude in [7] and in assay [11] were 0.918 relative to YLE and 3170 geometric mean normalized to baseline, respectively.

With AQMWKVVNL (Synthetic peptide) [Epitope 8 peptide AQMWKVVNL of ROPN1 and ROPN1B], the EC50 in assay [8] came out at 10.5 µM; in assay [9], 11.4 µM. Moreover, the Minimum stability in [6] turned out to be 1.4 fold change over baseline; in [10], 1.29 fold change over baseline. In addition, the Amplitude in [7] is 0.924 relative to YLE; in assay [11], 3480 geometric mean normalized to baseline.

As to ALACSALGV (Synthetic peptide) [Epitope 7 peptide ALACSALGV of ROPN1 and ROPN1B], the EC50 in assay [8] is 2.84 µM; in assay [9], 3.16 µM. The results for the Minimum stability in assay [6] and in assay [10] were 1.26 fold change over baseline and 1.37 fold change over baseline, respectively. The Amplitude in [7] is 0.852 relative to YLE; in assay [11] it was 2180 geometric mean normalized to baseline.
